From paper PMC2169300, “Signal-Regulated Pre-mRNA Occupancy by the General Splicing Factor U2AF”

Assays:
His-Sam68 [1] = target: T1, His-Sam68 (mouse, UniProt Q60749 1-443); test: EMSA; dose-dependent; EMSA as described in cited ref [19]; buffer, salt, pH and temperature not given; details: protein: recombinant; tags: His (pQE-32); chain copies: 2
His-Sam68 [2] = target: T1, His-Sam68; test: EMSA; 25 and 50 ng protein; EMSA as described in cited ref [19]; buffer, salt, pH and temperature not given; details: protein: recombinant; tags: His (pQE-32); chain copies: 2

T1 sequence (Q60749 whole entry): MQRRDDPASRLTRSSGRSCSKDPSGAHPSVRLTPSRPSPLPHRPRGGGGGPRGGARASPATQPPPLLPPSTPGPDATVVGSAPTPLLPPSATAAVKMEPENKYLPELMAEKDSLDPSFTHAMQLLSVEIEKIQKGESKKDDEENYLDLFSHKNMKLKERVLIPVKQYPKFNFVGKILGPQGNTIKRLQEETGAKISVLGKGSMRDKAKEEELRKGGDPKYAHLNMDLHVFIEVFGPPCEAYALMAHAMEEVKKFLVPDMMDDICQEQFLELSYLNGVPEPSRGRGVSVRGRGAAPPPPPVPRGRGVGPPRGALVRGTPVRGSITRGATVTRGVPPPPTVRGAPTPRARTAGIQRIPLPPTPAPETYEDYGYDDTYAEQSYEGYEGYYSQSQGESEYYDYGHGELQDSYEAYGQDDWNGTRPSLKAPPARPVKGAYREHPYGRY

Binder	binding result (His-Sam68 [1])	binding result (His-Sam68 [2])
GAAGAAGAGGAUUAUUAAAGACUAUUUGAUUAGA (ssRNA) [CD44 intronic Sam68 site RNA (wt)]	binds	–
AUAGACAGAAUCAGCACCAGUGCUCAUGGAGAAAAUUGGACC (ssRNA) [CD44 v5 exonic Sam68 site RNA]	–	binds
